Data taken from US20220280636A1 (Merck Sharp & Dohme, published 2022).

Columns and labels:
[1] = target: T1, rabbit whole molecule IgG (rabbit); assay: SPR; IgG amine coupled to CM5 chip, construct flowed at 750 ug/ml; end-point RU of association phase
T1 construct: Immobilised partner in SPR; also called Rabbit IgG; Rabbit IgG Whole Molecule

[2] = target: T2, guinea pig whole molecule IgG (guinea pig); assay: as above
T2 construct: Immobilised partner in SPR; also called Guinea Pig IgG

human whole molecule IgG = target: T3, human whole molecule IgG (human); assay: as above
T3 construct: Immobilised partner in SPR; also called Human IgG; Human IgG Whole Molecule

human IgG Fc = target: T4, human IgG Fc (human); assay: as above
T4 construct: domain: Fc; Immobilised partner in SPR; also called human IgG Fc domain

mouse whole molecule IgG = target: T5, mouse whole molecule IgG (mouse); assay: as above
T5 construct: Immobilised partner in SPR; also called Mouse IgG

gI-2t 262 = target: T6, gI-2t 262 (HSV-2, UniProt P06764 21-262); assay: SEC-MALS of the gE-2t 417 / gI-2t 262 heterodimer complex
T6 construct: Partner of gE-2t 417 in the SEC-MALS analysis of complex formation; also called soluble gI-2; not shown: glycine linker and thrombin-cleavable 6-Histidine tag

B1: gE-2t 417 (other)
chain: AAPRTSWKRVTSGEDVVLLPAPAGPEERTRAHKLLWAAEPLDACGPLRPSWVALWPPRRVLETVVDAACMRAPEPLAIAYSPPFPAGDEGLYSELAWRDRVAVVNESLVIYGALETDSGLYTLSVVGLSDEARQVASVVLVVEPAPVPTPTPDDYDEEDDAGVSERTPVSVPPPTPPRRPPVAPPTHPRVIPEVSHVRGVTVHMETPEAILFAPGETFGTNVSIHAIAHDDGPYAMDVVWMRFDVPSSCAEMRIYEACLYHPQLPECLSPADAPCAVSSWAYRLAVRSYAGCSRTTPPPRCFAEARMEPVPGLAWLASTVNLEFQHASPQHAGLYLCVVYVDDHIHAWGHMTISTAAQYRNAVVEQHLPQRQPEPVEPTRPHVRAPPPAPSARGPLR
notes: Monomer, mammalian expression; also called gE-2t 417 WT; gE-2t 417 wild type; not shown: glycine linker and thrombin-cleavable 6-Histidine tag
- RU Post Association [1]: 11 RU
- RU Post Association [2]: 5 RU
- RU Post Association (human whole molecule IgG): 4 RU
- RU Post Association (human IgG Fc): 5 RU
- RU Post Association (mouse whole molecule IgG): 10 RU
- binding result (gI-2t 262): binds
